Test results reported in US20260034253A1, “NECTIN-4 MINIPROTEIN CONJUGATES” (Aktis Oncology, Inc., priority 2022, published 2026).
Bridge positions count the residues as written; N and C are the ends. Square brackets hold non-standard residues; d marks the D form. Primed or numbered codes have the meaning given here. Ends that are not written are not given here. * marks the point of attachment. DOTA = O=C(O)CN1CCN(CC(=O)O)CCN(CC(=O)*)CCN(CC(=O)O)CC1; Biotin = O=C1N[C@H]2[C@H](CS[C@H]2CCCCC(=O)*)N1; PEG4′ = polyethylene glycol (PEG4) linker; Lys(Me3) = C[N+](C)(C)CCCC[C@H](N)C(=O)O; PEG4 = NCCOCCOCCOCCOCCC(=O)O

What was measured:
in vivo = details: female, athymic nude, mouse, tumor (HT1376 xenograft), total radioactivity
Experimental: In-111 labeling of miniproteins with MES buffer: In-111 was neutralized with 0.5 M MES buffer pH 5.5. This mixture was added to miniproteins prepared at 2 mg/mL in water with an equivalent amount of 0.5 M MES buffer pH 5.5, in a 1.5 mL Eppendorf vial and heated at 37° C. for 60 minutes. After the reaction, an HPLC sample was taken and an equivalent amount of 10 mM DTPA in 0.1 M ammonium acetate pH 5 was added and incubated for at least 15 minutes. The sample was then used for HPLC analysis.
In-111 labeling of miniproteins with Sodium Acetate buffer: In-111 was neutralized with 0.1 M sodium acetate buffer pH 5. […] After the reaction, an HPLC sample was taken and an equivalent amount of 10 mM DTPA in 0.1 M ammonium acetate pH 5 was added and incubated for at least 15 minutes. The sample was then used for HPLC analysis.
Purification of ^111In-miniproteins: Purification was done on two of the crude reaction mixtures mixed with 10 mM DTPA in 0.1 M ammonium acetate pH 5 and incubated for 15 minutes. A 3 kDa 0.5 mL Amicon filter was used for purification and the filter was spun at 15,000 RCF for 9 minutes. Saline was used as a formulation buffer.
Animals: Female athymic nude mice (6-8 weeks of age) were purchased from Charles River Laboratories and housed according to IACUC guidelines with ad libitum feeding. Biodistribution imaging experiments were performed on both null and tumor bearing athymic nude mice. Tumor xenograft models were generated by inoculating mice subcutaneously with 3×10^6 HT1376 cells, in 200 μL (50:50 PBS/Matrigel) in the right shoulder or right flank. Tumors were monitored for 14 days prior to SPECT/CT imaging dates. Mice with tumor volumes between 150 mm^3 and 250 mm^3 were selected for study inclusion and randomized to treatment arms. An excess of 60% of required imaging study mice were inoculated with tumor cells to ensure enough mice with appropriate tumor ranges were generated.
Animal grouping and Treatment: Animals were monitored for body weight bi-weekly and at the time of experimentation, grouped into groups of n=3. Animals were administered test-agents (TAs) that were prepared as described above. Animals received one of two standard injected dose activates and mass dose injections, depending at which site imaging studies were performed. • Site-1: 350 μCi of activity (^111In) at approximately […] peptide per mouse. • Site-2: 30MBq ([…]) of activity (^111In) at approximately 1 nM ([…]) of total peptide per mouse.
Animal imaging: Animals were sedated using isoflurane gas and imaged in a 3 bed hotel using a NanoScan SPECT/CT scanner. Animals were imaged at timepoints between 10 mins and 72 h post-dosing via SPECT scan, followed by CT scans. Details of the image process and analysis are described in Example 11.
Image Processing: Images were generated as SPECT/CT pair with the SPECT reported in units of activity. Namely, the values assigned to the voxels (volume elements) comprising the SPECT images were in units of μCi. SPECT images were co-registered to the CT scan for anatomical reference, resampled to 0.2 mm^3 voxels, masked to remove the CT background, and cropped to a uniform size prior to analysis.
Estimating tissue uptake: Regions of interest (ROIs) were defined using VivoQuant software. The kidneys and bladder were segmented as fixed volume phantoms and registered using the CT for anatomical reference. Two fixed volume spheres were used to create the liver ROI. Spheres were placed at appropriate anatomical locations based on CT and SPECT signal. Group and individual master spreadsheets were generated which included the volume, activity, and concentration (Activity/Volume) at each time point for each ROI generated. Additionally, plots of activity were generated using Matplotlib based python tools to highlight trends in the data.

[1] = target: T1, Nectin-4 on HT1376 urothelial cancer cells (UniProt Q96NY8 32-510); assay: saturation radioligand binding (Lu-177) on HT1376 cells, 4 C, gamma counting
T1 construct: whole, on cells; also called HT1376 cells
T1 sequence (looked up): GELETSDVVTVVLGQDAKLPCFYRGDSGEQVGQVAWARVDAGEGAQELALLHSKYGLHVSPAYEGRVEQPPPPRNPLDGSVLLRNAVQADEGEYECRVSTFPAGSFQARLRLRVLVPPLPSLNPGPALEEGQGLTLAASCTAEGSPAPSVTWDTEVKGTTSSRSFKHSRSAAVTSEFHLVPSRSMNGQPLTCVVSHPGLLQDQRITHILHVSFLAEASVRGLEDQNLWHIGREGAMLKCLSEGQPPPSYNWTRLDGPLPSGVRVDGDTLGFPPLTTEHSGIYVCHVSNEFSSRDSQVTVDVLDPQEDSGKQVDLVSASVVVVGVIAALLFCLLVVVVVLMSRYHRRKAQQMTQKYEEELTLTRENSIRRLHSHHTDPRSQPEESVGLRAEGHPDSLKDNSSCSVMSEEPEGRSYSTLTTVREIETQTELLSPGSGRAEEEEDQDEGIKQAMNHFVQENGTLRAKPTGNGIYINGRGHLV
Experimental: Radioligand binding was performed in HT1376 urothelial cancer cells by method of saturation. Cells were seeded at 20,000 cells per well in 96-well format 48 hours prior to assay. Lutetium-177-labeled radioconjugates of C215 and C117 were incubated with cells at 4 deg C. for 1 h at various increasing concentrations of radioligand. At the end of incubation cells were washed three times with PBS and radioactivity was quantified by gamma counting as shown in Table 3.

Human Nectin-4 = target: T2, Human Nectin-4 (human, UniProt Q96NY8 32-349, limits assumed); assay: SPR (Biacore), Nectin-4 immobilised
T2 construct: Amine-coupled to the Biacore chip; also called target protein; ligand
T2 sequence: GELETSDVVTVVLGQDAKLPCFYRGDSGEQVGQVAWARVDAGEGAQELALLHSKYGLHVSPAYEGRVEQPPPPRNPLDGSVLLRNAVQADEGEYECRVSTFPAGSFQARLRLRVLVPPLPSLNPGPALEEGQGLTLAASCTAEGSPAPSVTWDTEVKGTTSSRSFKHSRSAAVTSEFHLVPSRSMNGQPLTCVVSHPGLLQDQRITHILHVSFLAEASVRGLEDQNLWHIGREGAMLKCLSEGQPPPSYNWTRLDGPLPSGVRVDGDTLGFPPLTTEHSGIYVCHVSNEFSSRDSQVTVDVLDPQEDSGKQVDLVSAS

For “{DOTA-PEG4}-CEYDEQFFTALKALRGGDICYYIQASFNYLPDLCIEEILDNLGCS (disulfide 1-34, 20-44) [Compound C113]”, the tissue uptake at 4 h (in vivo) was 1.65 %ID/g.

In the case of “{DOTA-PEG4}-CEYDEQFFTALSSLRGGDICYYIQEQFANVPGICIEEILDNLGCS (disulfide 1-34, 20-44) [Compound C137]”, the tissue uptake at 4 h (in vivo) is reported as 1.12 %ID/g.

Work on {DOTA-PEG4′}-CEYDEEFFTALKRLRGGDICYYIKKKFKKVPKLCIEEILDKLGC-OH (designed binder, disulfide 1-34, 20-44; also: DOTA labeled with lutetium-177) [Lutetium-177-labeled radioconjugate of C215] yielded a Kd [1] of 4.24 nM.

Work on H-CEYDEEFFAGLKRLRGGDICYYIKKKFDKVPDLCIKEILDKLGC-OH (designed binder, disulfide 1-34, 20-44) [C3] yielded a Kd (Human Nectin-4) of 9.68 nM.

In the case of CEYDEEFFAGLKRLRGGDICYYIKKKFDKVPDLCIEEILDKLGC-OH (designed binder, disulfide 1-34, 20-44) [C7], the Kd (Human Nectin-4) is reported as 5.5 nM.

H-CEDDFQFFADLKRLRGGDICYYIRLKFDKVPDLCIKEILDKLGC-OH (designed binder, disulfide 1-34, 20-44) [C4] gave a Kd (Human Nectin-4) of 14.4 nM.

With H-CEDDGEYFAGLQRLYGGDICYYIKLKFPKVPDLCIKEILDKLGC-OH (designed binder, disulfide 1-34, 20-44) [C1] the Kd (Human Nectin-4) was 184 nM.

In the case of {Biotin-PEG4′}-CEYDEEFFTALKRLRGGDICEYIQA[Lys(Me3)]FQYLPGLCIEEILDNLGCS-OH (designed binder, disulfide 1-34, 20-44) [C201], the Kd (Human Nectin-4) is reported as 0.68 nM.
